These results are taken from publication PMC8882475.

Where only a bound is given, the exact number is not on record here.

Common to all, as to experiment: BLI
For orientation: Biolayer interferometry detects binding as a change in optical thickness at a sensor tip.

Assay [1] addresses biotinylated SARS-CoV-2 S protein RBD, Beta variant (K417N, E484K, N501Y) (SARS-CoV-2) (UniProt P0DTC2).
Assay [2] has as its target SI–F019, huACE2 (18–615) - IgG1 Fc null (human) (UniProt Q9BYF1).
A further assay concerns the target Bamlanivimab.
Assay [3] has as its target SARS-CoV-2 RBD (original, WT) (SARS-CoV-2) (UniProt P0DTC2).
Assay [4] addresses SARS-CoV-2 RBD, Kappa (L452R, E484Q) (SARS-CoV-2) (UniProt P0DTC2).
Assay [5] has as its target SARS-CoV-2 RBD, Gamma (K417T, E484K, N501Y) (SARS-CoV-2) (UniProt P0DTC2).
In assay [6] the target is SARS-CoV-2 RBD, Delta (L452R, T478K) (SARS-CoV-2) (UniProt P0DTC2).
Assay [7] addresses SARS-CoV-2 RBD, Lambda (L452Q, F490S) (SARS-CoV-2) (UniProt P0DTC2).
Assay [8] deals with SARS-CoV-2 spike trimer, full-length extracellular domain (ECD), His tagged (SARS-CoV-2) (UniProt P0DTC2).
Assay [9] concerns the target SARS-CoV-2 S1 protein (SARS-CoV-2).
Assay [10] concerns the target SARS-CoV-2 RBD, Beta (K417N, E484K, N501Y) (SARS-CoV-2) (UniProt P0DTC2).
The target of assay [11] is SARS-CoV-2 RBD, Alpha (N501Y) (SARS-CoV-2) (UniProt P0DTC2).

Usually Kd stands for the concentration at which binding is half-saturated. Imdevimab (antibody) registered a Kd in [1] of under 0.001 nM.

Turning to “SARS-CoV-2 RBD, Delta (L452R, T478K) (from UniProt P0DTC2) (domain or fragment)”, the equilibrium dissociation constant (Kd) in assay [2] is 7.26 nM.

Take “SARS-CoV-2 RBD, Lambda (L452Q, F490S) (from UniProt P0DTC2) (domain or fragment)”: the Kd in [2] stood at 13.5 nM.

A word on the koff: it is the rate constant with which the complex falls apart. A lower koff goes with slow dissociation. By kon is commonly meant the second-order rate constant of association. The low end stands for slow association, the high end for fast association. Turning to “SARS-CoV-2 S1 protein (domain or fragment)”, in assay [2], the dissociation constant (Kd) is 14.7 nM, the koff came out at 0.00493 s⁻¹ and the association rate constant (kon) stood at 337000 M⁻¹ s⁻¹.

“SARS-CoV-2 S protein RBD, Delta variant (L452R, T478K) (from UniProt P0DTC2) (domain or fragment)” had a Kd with Bamlanivimab of 3.61 nM.

Take “SI–F019, huACE2 (18–615) - IgG1 Fc null (from UniProt Q9BYF1-1 18-615) (Fc fusion)”: the equilibrium dissociation constant (Kd) is 0.114 nM in [3]; under 0.001 nM in assay [4]; 0.0623 nM in assay [5]; 0.0141 nM in [6]; 0.0892 nM in [7]; 0.18 nM in [8]. For the same substance, the Kd in assay [9] was determined as 0.29 nM; in assay [10] it was 0.0635 nM; in assay [11], 0.019 nM.

Take Tixagevimab (antibody): in [1], the Kd is under 0.001 nM.
